Results taken from patent publication US20170363632A1, “Biomarker Kit for Metastatic Breast Cancer Prognosis and Uses Thereof” (University of Maryland, Baltimore, priority 2016, published 2017).

Key:
HIS-PI3K/p85-SH3 [1] = target: T1, HIS-PI3K/p85-SH3 (Homo sapiens, UniProt O00459); test: GST-pull down assay; format: binding; details: 3 mg/ml HIS-PI3K/p85-SH3; control GST-protein did not retain
T1 construct: the Src Homology 3 (SH3) domain of the regulatory subunit of PI3K were produced; made in house; host or cells: bacteria (IPTG induction)
T1 sequence (O00459 4-80 limits assumed): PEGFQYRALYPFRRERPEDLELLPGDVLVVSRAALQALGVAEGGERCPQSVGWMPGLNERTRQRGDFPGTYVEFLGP
T1 sequence (Q5VST9 5895-6004 partner limits assumed): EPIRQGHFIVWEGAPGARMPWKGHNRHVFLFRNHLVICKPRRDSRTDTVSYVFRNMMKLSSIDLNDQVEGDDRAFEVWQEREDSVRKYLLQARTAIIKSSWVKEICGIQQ
Text: (§1) The Pleckstrin Homology (PH) domain of obscurin and the Src Homology 3 (SH3) domain of the regulatory subunit of PI3K were produced as glutathione-S-transferase (GST, PGEX vector; GE Healthcare Life Sciences) and His (pET-30a(+) vector; EMD Millipore, Billerica, Mass.) tagged proteins, respectively, according to the manufacturers' instructions and established methods (19). Human cDNA from normal breast tissue was purchased from a commercial source (Origene, Atlanta, Ga.), and the following sets of primers were used for amplification of the obscurin-PH and the PI3K/p85-SH3 domains: Sense-Obsc-PH: 5′ CCCATCCGCCAGGGC 3′ (SEQ ID NO 1) and Antisense-Obsc-PH: 5′ AGGCAGGGCCAGACG 3′ (NM_001098623.2) (SEQ ID NO 2), and Sense-PI3K/p85-SH3: 5′ CCTGAGGGCTTCCAG 3′ (SEQ ID NO 3) and Antisense-PI3K/p85-SH3: 5′ TCAGGGCCCCAGGAA 3′ (NM_005027) (SEQ ID NO 4). GST- and His-tagged recombinant proteins were expressed by induction with 0.5 mM isopropyl β-D-thioglucopyranoside (IPTG) for 3 h and purified by affinity chromatography on glutathione-Sepharose (Thermo Fisher Scientific) or Talon cobalt (Thermo Fisher Scientific) columns, respectively, following the manufacturers' instructions.
GST-pull down assays were performed (19, 20). […]

HIS-PI3K/p85-SH3 [2] = target: T1, HIS-PI3K/p85-SH3; test: Surface plasmon resonance (Biacore 3000) of obscurin-PH binding to PI3K/p85-SH3; details: GST-obscurin-PH immobilized ligand, HIS-PI3K/p85-SH3 analyte 8-250 nM; 1:1 Langmuir model, at equilibrium; read-out: dissociation constant, KD
Text: as §1, with “GST- and His-tagged recombinant proteins were expressed by induction with 0.5 mM isopropyl β-D-thioglucopyranoside (IPTG) for 3 h and purified by affinity chromatography on glutathione-Sepharose (Thermo Fisher Scientific) or Talon cobalt (Thermo Fisher Scientific) columns, respectively, following the manufacturers' instructions.” left out
Surface plasmon resonance was performed using a BiaCore 3000 instrument as described (6, 19, 21). […] For each analyte concentration, association was measured for 180 sec and dissociation was measured over another 180 sec. Data were evaluated with the 1:1 Langmuir model and the Heterogeneous Ligand model (BIAevaluation Software 3.1, Biacore). The association (ka, M^−1 s^−1) and dissociation (kd, s^−1) rate constants as well as the association (KA, M^−1) and dissociation (KD, M) equilibrium constants were determined.

B1: GST-obscurin-PH: recombinant Pleckstrin Homology (PH) domain of obscurin fused to GST, bacterially expressed (~37 kDa) (protein)
chain: T1 sequence (Q5VST9 5895-6004 partner limits assumed)
modifications: left off: a dimerising Fc or GST
HIS-PI3K/p85-SH3 [1]
  retention of HIS-PI3K/p85-SH3 in GST-pull down: able to efficiently and specifically retain HIS-PI3K/p85-SH3
HIS-PI3K/p85-SH3 [2]
  Kd: ~50 nM
